The text below walks through data of PMC5714612 (Cell Reports, 2017).

Numbering of substitutions follows the chain as printed. Names may count otherwise.

First the molecules themselves.
T1: Recombinant His-tagged S135E Syt4 (rat, UniProt P50232 1-425, S135E)
T1 sequence (looked up): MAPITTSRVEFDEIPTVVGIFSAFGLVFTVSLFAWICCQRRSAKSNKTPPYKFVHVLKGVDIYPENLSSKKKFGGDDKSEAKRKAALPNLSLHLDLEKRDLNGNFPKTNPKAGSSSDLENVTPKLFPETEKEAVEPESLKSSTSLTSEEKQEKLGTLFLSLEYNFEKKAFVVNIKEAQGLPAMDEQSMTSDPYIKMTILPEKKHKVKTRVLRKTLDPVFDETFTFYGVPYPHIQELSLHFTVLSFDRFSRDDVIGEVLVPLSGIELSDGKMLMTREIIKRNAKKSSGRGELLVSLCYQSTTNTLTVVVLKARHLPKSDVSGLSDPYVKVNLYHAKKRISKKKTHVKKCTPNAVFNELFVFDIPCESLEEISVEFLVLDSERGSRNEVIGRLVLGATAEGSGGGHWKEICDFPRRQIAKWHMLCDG

B1: mCherry-tagged S135A Syt4 (phosphodeficient) (natural protein, rat, UniProt P50232 1-425, looked up)
chain: T1 sequence (looked up) with E135A
B2: mCherry-tagged S135E Syt4 (phosphomimetic) (natural protein, rat, UniProt P50232 1-425, looked up)
chain: T1 sequence (looked up)
B3: Kif1A-GFP (natural protein, rat, UniProt F1M4A4 1-1707, looked up)
chain: MAGASVKVAVRVRPFNSREMSRDSKCIIQMSGSTTTIVNPKQPKETPKSFSFDYSYWSHTSPEDINYASQKQVYRDIGEEMLQHAFEGYNVCIFAYGQTGAGKSYTMMGKQEKDQQGIIPQLCEDLFSRINDTTNDNMSYSVEVSYMEIYCERVRDLLNPKNKGNLRVREHPLLGPYVEDLSKLAVTSYNDIQDLMDSGNKARTVAATNMNETSSRSHAVFNIIFTQKRHDAETNITTEKVSKISLVDLAGSERADSTGAKGTRLKEGANINKSLTTLGKVISALAEMDSGPNKNKKKKKTDFIPYRDSVLTWLLRENLGGNSRTAMVAALSPADINYDETLSTLRYADRAKQIRCNAIINEDPNNKLIRELKDEVTRLRDLLYAQGLGDITDTNTVPGGPKLTNALVGMSPSSSLSALSSRAASVSSLHERILFAPGSEEAIERLKETEKIIAELNETWEEKLRRTEAIRMEREALLAEMGVAMREDGGTLGVFSPKKTPHLVNLNEDPLMSECLLYYIKDGVTRVGREDAERRQDIVLSGHFIKEEHCIFRSDSRGGGEAVVTLEPCEGADTYVNGKKVTEPSILRSGNRIIMGKSHVFRFNHPEQARQERERTPCAETPAEPVDWAFAQRELLEKQGIDMKQEMEQRLQELEDQYRREREEATYLLEQQRLDYESKLEALQKQMDSRYYPEVNEEEEEPEDEVQWTERECELALWAFRKWKWYQFTSLRDLLWGNAIFLKEANAISVELKKKVQFQFVLLTDTLYSPLPPDLLPPEAAKDRETRPFPRTIVAVEVQDQKNGATHYWTLEKLRQRLDLMREMYDRAAEVPSSVVEDCDNVVTGGDPFYDRFPWFRLVGRAFVYLSNLLYPVPLVHRVAIVSEKGEVKGFLRVAVQAISADEEAPDYGSGVRQSGTAKISFDDQHFEKFQSESCPVVGMSRSGTSQEELRIVEGQGQGADAGPSADEVNNNTCSAVPPEGLLDSPEKAALDGPLDTALDHLRLGSTFTFRVTVLQASSISAEYADIFCQFNFIHRHDEAFSTEPLKNTGRGPPLGFYHVQNIAVEVTKSFIEYIKSQPIVFEVFGHYQQHPFPPLCKDVLSPLRPSRRHFPRVMPLSKPVPATKLSTMTRPSPGPCHCKYDLLVYFEICELEANGDYIPAVVDHRGGMPCMGTFLLHQGIQRRITVTLLHETGSHIRWKEVRELVVGRIRNTPETDEALIDPNILSLNILSSGYVHPAQDDRQFLDSDIPRTFYQFEAAWDSSMHNSLLLNRVTPYREKIYMTLSAYIEMENCTQPAVITKDFCMVFYSRDAKLPASRSIRNLFGSGSLRATEGNRVTGVYELSLCHVADAGSPGMQRRRRRVLDTSVAYVRGEENLAGWRPRSDSLILDHQWELEKLSLLQEVEKTRHYLLLREKLETTQRPVPEVLSPASSEDSESRSSSGASSPLSAEGQPSPLEVPNERQRELAVKCLRLLMHTFNREYTHSHVCISASESKLSEMSVTLMRDPSMSPLGAATLTPSSTCPSLIEGRYGATDVRTPQPCSRPASPEPELLPELDSKKTPSPVRATETEKEPQRLLVPDIQEIRVSPIVSKKGYLHFLEPHTAGWAKRFVVVRRPYAYMYNSDKDTVERFVLNLSTAQVEYSEDQQAMLKTPNTFAVCTEHRGILLQANSDKDMHDWLYAFNPLLAGTIRSKLSRRRSAQMRV
B4: endogenous Kif1A (natural protein, UniProt P33173 1-1695, looked up)
chain: MAGASVKVAVRVRPFNSREMSRDSKCIIQMSGSTTTIVNPKQPKETPKSFSFDYSYWSHTSPEDINYASQKQVYRDIGEEMLQHAFEGYNVCIFAYGQTGAGKSYTMMGKQEKDQQGIIPQLCEDLFSRINDTTNDNMSYSVEVSYMEIYCERVRDLLNPKNKGNLRVREHPLLGPYVEDLSKLAVTSYNDIQDLMDSGNKPRTVAATNMNETSSRSHAVFNIIFTQKRHDAETNITTEKVSKISLVDLAGSERADSTGAKGTRLKEGANINKSLTTLGKVISALAEMDSGPNKNKKKKKTDFIPYRDSVLTWLLRENLGGNSRTAMVAALSPADINYDETLSTLRYADRAKQIRCNAIINEDPNNKLIRELKDEVTRLRDLLYAQGLGDITDMTNALVGMSPSSSLSALSSRAASVSSLHERILFAPGSEEAIERLKETEKIIAELNETWEEKLRRTEAIRMEREALLAEMGVAMREDGGTLGVFSPKKTPHLVNLNEDPLMSECLLYYIKDGVTRVGREDAERRQDIVLSGHFIKEEHCIFRSDSRGGGEAVVTLEPCEGADTYVNGKKVTEPSILRSGNRIIMGKSHVFRFNHPEQARQERERTPCAETPAEPVDWAFAQRELLEKQGIDMKQEMEQRLQELEDQYRREREEATYLLEQQRLDYESKLEALQKQMDSRYYPEVNEEEEEPEDEVQWTERECELALWAFRKWKWYQFTSLRDLLWGNAIFLKEANAISVELKKKVQFQFVLLTDTLYSPLPPDLLPPEAAKDRETRPFPRTIVAVEVQDQKNGATHYWTLEKLRQRLDLMREMYDRAAEVPSSVVEDCDNVVTGGDPFYDRFPWFRLVGRAFVYLSNLLYPVPLVHRVAIVSEKGEVKGFLRVAVQAISADEEAPDYGSGVRQSGTAKISFDDQHFEKFQSESCPVVGMSRSGTSQEELRIVEGQGQGADAGPSADEVNNNTCSAVPPEGLMDSPEKAALDGPLDTALDHLRLGSTFTFRVTVLQASSISAEYADIFCQFNFIHRHDEAFSTEPLKNTGRGPPLGFYHVQNIAVEVTKSFIEYIKSQPIVFEVFGHYQQHPFPPLCKDVLSPLRPSRRHFPRVMPLSKPVPATKLSTMTRPSPGPCHCKYDLLVYFEICELEANGDYIPAVVDHRGACMGTFLLHQGIQRRITVTLLHETGSHIRWKEVRELVVGRIRNTPETDEALIDPNILSLNILSSGYVHPAQDDRVFFGNDTRTFYQFEAAWDSSMHNSLLLNRVTPYREKIYMTLSAYIEMENCTQPAVITKDFCMVFYSRDAKLPASRSIRNLFGSGSLRATEGNRVTGVYELSLCHVADAGSPGMQRRRRRVLDTSVAYVRGEENLAGWRPRSDSLILDHQWELEKLSLLQEVEKTRHYLLLREKLETTQRPGPEVLSPASSEDSESRSSSGASSPLSAEGQPSPLEAPNERQRELAVKCLRLLMHTFNREYTHSHVCISASESKLSEMSVTLMRDPSMSPLGAATLTPSSTCPSLIEGRYGATDVRTPQPCSRPASPEPELLPELDSKKTPSPVRATETEKEPQRLLVPDIQEIRVSPIVSKKGYLHFLEPHTAGWAKRFVVVRRPYAYMYNSDKDTVERFVLNLSTAQVEYSEDQQAMLKTPNTFAVCTEHRGILLQANSDKDMHDWLYAFNPLLAGTIRSKLSRRRSAQMRV

Assay [1] has as its target Kif1A (Kif1A-GFP, GST-tagged full-length Kif1A) (UniProt F1M4A4). Briefly: co-IP with GFP-Trap beads, Syt4 blotted. As to conditions: reference: S135A; sites S135.
The assay “Kif1A-GFP” concerns the target B3. Briefly: co-IP.
Assay [2] deals with B1. Briefly: co-IP.
The target in assay [3] is B2. The experiment in a line: co-IP.
The target in assay [4] is T1, Recombinant His-tagged S135E Syt4. The experiment in a line: pull-down.

In the case of “Synaptotagmin-4 (Syt4) (from UniProt P50232) S135E”, in assay [1], the “other: percent of WT” value is on record as “weaker; reference 134.4 ± 11.1”.

Take B1: the “amount co-immunoprecipitated, percent of WT” value in the assay with Kif1A-GFP was 134 % of WT. On the same count and under the same terms, the figure for B2 is 42.9 % of WT. As for B3, the “amount co-immunoprecipitated, percent of WT” value in assay [2] is 158 % of WT; in assay [3] it was 87 % of WT. For B4, the “amount pulled down, percent of WT” value in assay [4] was 43.6 % of WT.
